In the DeepSol protein solubility set:

Assay: soluble on expression in E. coli; label from the status in PepcDB or PDB records

**Q.** For “EHLRLDNDQREKYIQEARNMGSTIRQPKLSNLSPSVIAQTNWKFVEGLLKECRNKTKRMLVEKMGREAVELGHGEVNITGVEENTLIASLCDLLERIWSHGLQVKQGKSALWSHLLHYQENRQRKLTSGSLSTSGILLDSERRKSDASAVMSPLRISLIQDMRHIQNIGEIKTDVGKARAWVRLSMEKKLLSRHLKQLLSDHELTKKLYKRYAFLRCDDEKEQFLYHLLSFNAVDYFCFTNVFTTILIPYHILIVPSKKLGGSMFTANPWICISGELGETQILQIPRNVLEMTFECQNLGKLTTVQIGHDNSGLYAKWLVECVMVRNEVTGHTYKFPCGRWLGKGMDDGSLERVLVGELLTSLPEVDERPCRTPPLQQSPSVIR”, which “soluble on expression in E. coli” value is on record?
**A.** soluble

**Q.** For “MGSDKIHHHHHHMIGDMNELLLKSVEVLPPLPDTVSKLRKYVSEANSNIETMKVAEIISSDPLMTAKLLQLANSPYYGFTREITTINQVITLLGVGNIINIVMADSIRDNFKIDVSPYGLNTQNFLKTCNEEATFIANWLNDEDKKLSHLLVPCAMLLRLGIVIFSNFLIQNHKDKDFLAFLNKNENLALAENEFLGVDHISFLGFLLHRWNFDDVLIESICFVRTPHAAREKVKKSAYALAITDHLFAPHDGSSPFNAKAAVALLKEAKTQGINFDLNNLLSKLPNKAKENLNKED”, which “soluble on expression in E. coli” value is on record?
**A.** soluble

**Q.** For “SLQKQEKIIEMFNQIAPTYDKANRILSFGADVAWRKKACQRVMSLYLKKDLKIADIACGTGDMIEIWQESALKMEKNILNIKGIDPSSGMLNVAKEKFPNVEFIKAGAQNLPLESQSLDILSISYGIRNVVERQKALSEFARVLQKDGILVVLEFTKREKGGFIAACRDFYLKNILPSIGGIISKNKSAYEYLPNSIEGFLSKKEFILELKNAGFEMLDYKSFSFGVSSMFIAKKL”, which “soluble on expression in E. coli” value is on record?
**A.** soluble

**Q.** Which “soluble on expression in E. coli” value does the source give for “YEGGWTQDKQWEREMNIAQEKYGPIFAKYAAMPIEEVAKDEHAMKMGSRMFATYCSICHGSDAKGALGFPNLADNEWRWGGDPQSIETTILGGRHAIMAAWGDILGEDGVKNVAAYVRTELAGLKLPEGTKADVEAGKQIFSVNCVACHGPEGKGTALVGAPNLTNPGAFIYGSSYAQLQQTIRHGRQGQMPAQEPYLGKEKVHILAAYI” here?
**A.** not soluble

**Q.** With “MKESLIEAKVMDYGKLKDIQKEILYYKLYVDALKKKGIKEKVDPPPTLPKSIVSSVLTGGIPRDGPLQIELVSNDVVKIKEYNTLVKIQSDSRLPLYAIVEYRDTDIRVYLAYRENPSIVGLDLGLRHLITIVAIKDTKPWKVRFFDEPKLMEKFANFLSENQGIIKLEEMKSNAKRIIYEAVSFIEDLEPKVVAMENLEYFETKTGKGLRALQNMLENEIRRRGIRYRKIDPYNTSRVCAKCGYKKGEILGSLFVCPACGYKADRDYNAAYNIALKCYYTCLEHHHHHH” as the sequence, how does the “soluble on expression in E. coli” value read?
**A.** not soluble

**Q.** For “MHHHHHHHHHHISSASGESQMSLDEIEDVYHTRPGYRPEEYRWGQGGAKIIDYHIQSAGVDFPPSLTGNQQTDFLMKVVFEYDFDCVVPGILIKTLDGLFLYGTNSFLASEGRENISVSRGDVRVFKFSLPVDLNSGDYLLSFGISAGNPQTDMTPLDRRYDSIILHVTKSMDFWGVIDLKSSFTSYQ”, which “soluble on expression in E. coli” value is on record?
**A.** soluble

**Q.** With “MAEVKKSNAPEFKGAETLYLIDIPQPDGKTTKTVRFFNQTSGSRSIEAGEIELKTKDKSGSDYGDVTQSASIEGICTEGDEGLDYVEEAILNKVLVRIHEVNLRSATASEFKVKSGTYMLNSLELSHENEEYSKYSIGLKLNGKISKGTLNKVPEGAPSGDVATPGTE” as the sequence, how does the “soluble on expression in E. coli” value read?
**A.** not soluble

**Q.** Which “soluble on expression in E. coli” value does the source give for “MRDMGEPKLKIVAMPSDTNPAGNIFGGWILSQIDLAGAIAARELSPERVVTISMDKVVFKEPVFIGDIISCYSKVVNVGNTSISVEVEVTAQRVDSQGCTSCINVTSALVTYVSVTRDGKKNPISEELKRIHGFLNALEHHHHHH” here?
**A.** soluble

**Q.** With “KGMIRPRGLNQQRYVKEVLSNDINFGIGPAGTGKTYLAVACAVDALEREQIRRILLVRPAVEAGEKLGFLPGDLAQKIDPYLRPLYDALYEMLGFEYVAKLIEKQVIEVAPLAYMRGRTLNNSFIILDESQNTTVEQMKMFLTRIGFGSTAVITGDITQVDLPKGTRSGLTHVIDVLKDVPGISFTHFKPKDVVRHPLVQRIVEAYERFDDQLSDGPSGNNG” as the sequence, how does the “soluble on expression in E. coli” value read?
**A.** soluble

**Q.** With “SEKRFKVYVYEEGEPPLVHDGPCKSVYAVEGRFITEMEKRRTKFRTYDPNQAYVYFLPFSVTWLVRYLYEGNSDAKPLKTFVSDYIRLVSTNHPFWNRTNGADHFMLTCHDWGPLTSQANRDLFNTSIRVMCNANSSEGFNPTKDVTLPEIKLYGGEVDHKLRLSKTLSASPRPYLGFFAGGVHGPVRPILLKHWKQRDLDMPVYEYLPKHLNYYDFMRSSKFCFCPSGYEVASPRVIEAIYSECIPVILSVNFVLPFTDVLRWETFSVLVDVSEIPRLKEILMSISNEKYEWLKSNLRYVRRHFELNDPPQRFDAFHLTLHSIWLRRLNLKLT” as the sequence, how does the “soluble on expression in E. coli” value read?
**A.** soluble

**Q.** With “MSTDEWRTERDPLVSQDRFLWEKVCCTIIPLHKKRYSSFAKEVVNVSKDAVKINNKKQYITQILPLSQANQQKLTEVKREKKAIAQTHKIHFFDRVVHRKIAKGHYSIEARLDLHGCMQEEAYFFLKKFLQSSQQNGLRYVLVITGKGRSPGSNGVLYQSVPHWLSTPAFRYYVHAFEQAARQHGGDGALYVRLRRFLPGKGYDVV” as the sequence, how does the “soluble on expression in E. coli” value read?
**A.** not soluble

**Q.** Which “soluble on expression in E. coli” value does the source give for “MSLFFHSDVLSVSELNAFAKSLLENHLAGLWIAGEVSNLTRAASGHYYFSLKDSRAQVRCAMFKGAAVRLAKPLKEGDHIEVSGKISIYEARGEFQITVNEVRLKGLGQLYEAYERLKAQLQAEGAFAAERKKPLPVRPQCIGIVTSLAAAALRDVVTTLKRRAPEIPVIVYPTPVQGAGSELQIAQAIKTASQRAECDVLIVCRGGGSIEDLWAFNEEPVVRAIESCTVPVVSGVGHETDFTLADFVADMRAPTPTGAAELVSPNRQESLHRLAQAQCRLKTVLEQRYFDASQKLDWLARQIRHPRQKLDEQRASIGKLAQTLSYSMTQNVRTHTARFERQTQALKHCRPDVSVCKKNIDRFQTALSHAFHQLLTHRRQSLTAQAALLEAVSPQHILERGFSVVKNTRGQVIRNADVLKQGQKLHIIFADGETDVRVSKEQGQQDLFDCIEGHHHHHH” here?
**A.** not soluble

**Q.** Which “soluble on expression in E. coli” value does the source give for “MRPPLIERYRNLLPVSEKTPVISLLEGSTPLIPLKGPEEARKKGIRLYAKYEGLNPTGSFKDRGMTLAVSKAVEGGAQAVACASTGNTAASAAAYAARAGILAIVVLPAGYVALGKVAQSLVHGARIVQVEGNFDDALRLTQKLTEAFPVALVNSVNPHRLEGQKTLAFEVVDELGDAPHYHALPVGNAGNITAHWMGYKAYHALGKAKRLPRMLGFQAAGAAPLVLGRPVERPETLATAIRIGNPASWQGAVRAKEESGGVIEAVTDEEILFAYRYLAREEGIFCEPASAAAMAGVFKLLREGRLEPESTVVLTLTGHGLKDPATAERVAELPPPVPARLEAVAAAAGLL” here?
**A.** soluble

**Q.** For “MVTEQEIEAIGKTLVDPKQPLQARFRALFTLRGLGGPDAISWISRGFEDSSALLKHELAYCLGQMRDVRAIPVLVGVLQDTSQEPMVRHEAGEALGAIGNPEVLGLLKQYSTDPVVEVAETCQLAVGRLEWLQQHPGEATCAGPYLSVDPAPPAAEQDVGRLREALLDEARPLFERYRAMFALRNVGGKEAALALAEGLQCGSALFRHEVGYVLGQLQHEAAVPGLAATLARTTESPMVRHECAEALGAIARPACLAALREHIEDPEQVVRESCEVALDMYEYESSQDFQYADGLERLRPPP”, which “soluble on expression in E. coli” value is on record?
**A.** soluble

**Q.** Which “soluble on expression in E. coli” value does the source give for “MAHHHHHHMKAVSIRQVSAIIILDNNGKRIAVKYYNDQAPLKGENKLVPKNTNKDLVSNAFENTYNNLRTVEDQKLFESDITEKARKLGGDSSETEVLVLNKFTILYLLINDVSIYIVGEESDNEIILHEIMQTVQQCLDNVTNNQIGKKQLLDKLDSIYLILDEIADSGIIMETNPNVIINRLYMHESDLQEHTPLNQAISSAKENIIRSLLSGT” here?
**A.** not soluble

**Q.** For “MTKTEPNNAQLDWLESESIHIIREVAAECENPALLFSGGKDSVVLLALACKAFRLGSRPVKLPFPLVHIDTGHNYPEVIAFRDAQAAKLNARLIVGRVEDSIAKGTVVLRKETDSRNAAQAVTLLETIEANGFDALMGGARRDEEKARAKERIFSFRDEFGQWDPKAQRPELWSLYNTRLHKGENMRVFPISNWTELDIWQYIARENLELPPIYYSHRREVVRRRGLLVPVTPLTPKMPSETSEILDVRFRTVGDISCTCPVESTASTPTEIIRETAVADISERSATRLDDQASEAAMEKRKKEGYF”, which “soluble on expression in E. coli” value is on record?
**A.** not soluble

**Q.** Which “soluble on expression in E. coli” value does the source give for “GNYHVTLQASYIAKNVEDVEDAIGVAISQIGKLLNKGSLDYVDIDVGLTICPKCGEPIDCVLVVAKTAIVGILLSMKVFNAESPEHAVRIAKSSIGRALKDIP” here?
**A.** not soluble

**Q.** With “MSLGDAADPREMRKTFIVPAIKPFDHYDFSRAKIACNLAWLVAKAFGTENVPEELQEPFYTDQYDQEHIKPPVVNLLLSAELYCRAGSLILKSDAAKPLLGHDAVIQALAQKGLYVTDQEKLVTERDLHKKPIQMSAHLAMIDTLMMAYTVEMVSIEKVIACAQQYSAFFQATDLPYDIEDAVMYWINKVNEHLKDIMEQEQKLKEHHTVEAPGGQKEGHHHHHH” as the sequence, how does the “soluble on expression in E. coli” value read?
**A.** soluble

**Q.** With “MSELDQLRQEAEQLKSQIREARKSANDTTLATVASNLEPIGRIQMRTRRTLRGHLAKIYAMHWASDSRNLVSASQDGKLIVWDSYTTNKVHAIPLRSSWVMTCAYAPSGSFVACGGLDNICSIYSLKTREGNVRVSRELPGHTGYLSCCRFLDDNQIVTSSGDMTCALWDIETGQQCTAFTGHTGDVMSLSLSPDFRTFISGACDASAKLWDIRDGMCKQTFPGHESDINAVAFFPSGNAFATGSDDATCRLFDIRADQELAMYSHDNIICGITSVAFSKSGRLLFAGYDDFNCNVWDSMRQERAGVLAGHDNRVSCLGVTEDGMAVCTGSWDSFLKIWN” as the sequence, how does the “soluble on expression in E. coli” value read?
**A.** soluble

**Q.** For “MSLAADTPTTCCFSYTSRQIPQNFIADYFETSSQCSKPGVIFLTKRSRQVCADPSEEWVQKYVSDLELSA”, which “soluble on expression in E. coli” value is on record?
**A.** soluble

**Q.** Which “soluble on expression in E. coli” value does the source give for “MPLAVDLLHPEPQREIRCHKLKRLVQHPNSYFMDVKCSGCFKISTVFSHATTVVVCVGCNTVLCQPTRGKAKLTEGCSFRKKQ” here?
**A.** not soluble

**Q.** Which “soluble on expression in E. coli” value does the source give for “MSLTKEPILELADMSDFEQLIRQHPEKIIILDFYATWCGPCKAIAPLYKELATTHKGIIFCKVDVDEAEDLCSKYDVKMMPTFIFTKNGDAIEALEGCVEDELRQKVLEHVSAQ” here?
**A.** not soluble

**Q.** For “MAAYQVLIVGAGFSGAETAFWLAQKGVRVGLLTQSLDAVMMPFLPPKPPFPPGSLLERAYDPKDERVWAFHARAKYLLEGLRPLHLFQATATGLLLEGNRVVGVRTWEGPPARGEKVVLAVGSFLGARLFLGGVVEEAGRLSEASYPDLLEDLSRLGFRFVEREGEVPETPSTPGYRVRYLAFHPEEWEEKTFRLKRLEGLYAVGLCVREGDYARMSEEGKRLAEHLLHELG”, which “soluble on expression in E. coli” value is on record?
**A.** soluble

**Q.** For “MHHHHHHVSLDKAVIARLRKGGEEFEVLVDPYLARDLKEGKEVNFEDLLAAEEVFKDAKKGERASVDELRKIFGTDDVFEIARKIILEGEVQITAEQRREMLEAKRKQIINFISRNTIDPRTNAPHPPSRIERALEEAKVHIDIFKSVEAQVKDIVKALKPILPLKFEEMEIAIKIPPEHTGRAISALYNFGGVTREEWQRDGSWICVMRIPSGMYGDLMDLLGKVAKGEALTKVLRRIG”, which “soluble on expression in E. coli” value is on record?
**A.** soluble

**Q.** With “MRLYRDRAVVLRQHKLGEADRIVTLLTRDHGLVRAVAKGVRRTRSKFGARLEPFAHIEVQLHPGRNLDIVTQVVSVDAFATDIVADYGRYTCGCAILETAERLAGEERAPAPALHRLTVGALRAVADGQRPRDLLLDAYLLRAMGIAGWAPALTECARCATPGPHRAFHIATGGSVCAHCRPAGSTTPPLGVVDLMSALYDGDWEAAEAAPQSARSHVSGLVAAHLQWHLERQLKTLPLVERFYQADRSVAERRAALIGQDIAGG” as the sequence, how does the “soluble on expression in E. coli” value read?
**A.** not soluble
